Experimental findings from publication doi:10.1101/797027 are described below.

This test has as its target hRpn10^322–366 peptide with Y326 phosphorylated (human) (UniProt P55036). Briefly: ITC. On the technique in general: Isothermal titration calorimetry measures the heat released or taken up as one component is titrated into another.

Chain of E6AP AZUL domain, E6AP[24–87] (Q05086 24-87): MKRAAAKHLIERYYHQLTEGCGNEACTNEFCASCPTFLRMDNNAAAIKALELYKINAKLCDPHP

With “E6AP AZUL domain, E6AP[24–87] (from UniProt Q05086 24-87) (domain or fragment)”, the fold reduction of affinity against unphosphorylated hRpn10^322–366 amounted to 10 fold.
